The values that follow come from US20140105889A1 (published 2014).

In test [1] the target is T1, mouse FcγRIV (mouse).
T1 construct: Bought soluble receptor; also called mFcgRIV; mFcgR IV
Kind of test: SPR (Biacore), antibody captured on Protein L, mouse FcγR as analyte, pH 7.4, 25 C. For orientation: Surface plasmon resonance follows binding to a sensor surface in real time, without labels.

The target in test [2] is T2, human FcRn (soluble human FcRn complexed with beta2-microglobulin) (human, UniProt P61769 21-119).
T2 construct: also called hFcRn
Kind of test: SPR (Biacore), pH 7.0, 25 C, antibody captured by Protein L, human FcRn as analyte.

The target of test [3] is T3, FcγRIIIa type V (human, UniProt P08637 17-208, limits assumed).
T3 construct: Soluble analyte in Biacore; also called FcγRIIIaV; FcγRIIIa(V)
As to the kind of experiment: SPR (Biacore), antibody captured on chip, FcγR as analyte, method of Example 14.

The target of test [4] is T4, FcγRIIb (human, UniProt P31994 43-217, limits assumed).
T4 construct: Soluble analyte in Biacore; also called FcgRIIb; FcγIIB
T4 sequence: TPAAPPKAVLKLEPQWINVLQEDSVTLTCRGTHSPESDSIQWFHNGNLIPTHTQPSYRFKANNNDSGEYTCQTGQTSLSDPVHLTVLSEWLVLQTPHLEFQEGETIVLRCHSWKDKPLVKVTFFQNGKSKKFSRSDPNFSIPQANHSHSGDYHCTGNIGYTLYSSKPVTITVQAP
The description is as above.

In a further test the target is T5, human FcRn (human).
T5 construct: also called hFcRn; soluble human FcRn complexed with β2-microglobulin
As to the kind of experiment: SPR (Biacore), pH 7.0, 25 C, antibody captured by Protein L, human FcRn as analyte.

For another test, the target named is T6, FcγRIIa type H (human, UniProt P12318 36-217).
T6 construct: also called FcγRIIaH; FcγRIIa(H)
T6 sequence: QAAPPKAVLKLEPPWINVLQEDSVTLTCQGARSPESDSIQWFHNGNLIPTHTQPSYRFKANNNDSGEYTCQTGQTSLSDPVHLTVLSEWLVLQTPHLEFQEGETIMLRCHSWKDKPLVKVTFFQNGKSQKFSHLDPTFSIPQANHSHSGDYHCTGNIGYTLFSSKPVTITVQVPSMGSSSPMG
As to the kind of experiment: SPR (Biacore), captured antibody, FcγR as analyte, method of Example 14.

In test [5] the target is T7, FcγRIIIa type V (human, UniProt P08637 17-208, limits assumed).
T7 construct: also called FcγRIIIaV; FcγRIIIa(V)
Described as above.

The target of test [6] is T8, FcγRIIb (human, UniProt P31994 43-217, limits assumed).
T8 construct: also called FcγIIB; FcgRIIb
T8 sequence: T4 sequence
Kind of test: ratio of SPR KD values of this variant (FcγRIIaR over FcγRIIb).

In test [7] the target is T8, FcγRIIb. Kind of test: ratio of SPR KD values of this variant (FcγRIIaH over FcγRIIb).
Test [8] deals with T9, human FcRn (soluble human FcRn complexed with beta2-microglobulin) (human, UniProt P61769 21-119).
T9 construct: Soluble human FcRn complexed with beta2-microglobulin; also called hFcRn
Kind of test: Biacore SPR, antibody captured on Protein L, human FcRn analyte, pH 7.0.

Test [9] deals with T1, mouse FcγRIV. Kind of test: SPR (Biacore), antibody captured on Protein L, mouse FcγR as analyte, pH 7.4, 25 C. The source holds these as a separate data set.

Numbering of substitutions follows the chain as printed. Like-named read-outs stand apart in the source and are kept apart here.

What is called Kd is the equilibrium constant for the complex coming apart.

T5 sequence (chain, as listed by the source limits assumed, chain 1 of 2): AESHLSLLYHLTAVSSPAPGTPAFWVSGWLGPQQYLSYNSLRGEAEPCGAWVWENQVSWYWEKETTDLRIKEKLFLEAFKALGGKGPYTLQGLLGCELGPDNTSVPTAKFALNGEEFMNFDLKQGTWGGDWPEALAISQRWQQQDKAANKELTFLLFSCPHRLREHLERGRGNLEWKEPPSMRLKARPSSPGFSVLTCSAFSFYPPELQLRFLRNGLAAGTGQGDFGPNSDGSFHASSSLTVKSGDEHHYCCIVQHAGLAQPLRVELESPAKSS
T5 sequence (P61769 21-119 limits assumed, chain 2 of 2): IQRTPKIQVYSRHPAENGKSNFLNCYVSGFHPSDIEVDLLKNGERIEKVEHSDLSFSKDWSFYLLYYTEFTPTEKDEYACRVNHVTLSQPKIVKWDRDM
T1 sequence (A0A0B4J1G0 21-203): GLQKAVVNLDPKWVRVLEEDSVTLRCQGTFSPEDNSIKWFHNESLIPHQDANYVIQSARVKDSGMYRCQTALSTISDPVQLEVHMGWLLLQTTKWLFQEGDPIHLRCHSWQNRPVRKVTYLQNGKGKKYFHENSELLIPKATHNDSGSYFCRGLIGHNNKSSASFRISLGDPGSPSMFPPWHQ

B1: VH3/L(WT)-IgG1-F140 (antibody)
heavy: QVQLQESGPGLVKPSETLSLTCAVSGHSISHDHAWSWVRQPPGEGLEWIGFISYSGITNYNPSLQGRVTISRDNSKNTLYLQMNSLRAEDTAVYYCARSLARTTAMDYWGEGTLVTVSSASTKGPSVFPLAPSSKSTSGGTAALGCLVKDYFPEPVTVSWNSGALTSGVHTFPAVLQSSGLYSLSSVVTVPSSSLGTQTYICNVNHKPSNTKVDKKVEPKSCDKTHTCPPCPAPELLGGPKVFLFPPKPKDTLYISRTPEVTCVVVDVSHEDPEVKFNWYVDGVEVHNAKTKPREEQYNSTYRVVSVLTPLHQDWLNGKEYKCKVSNKALPAPIEKTISKAKGQPREPQVYTLPPSRDELTKNQVSLTCLVKGFYPSDIAVEWESNGQPENNYKTTPPVLDSDGSFFLYSKLTVDKSRWQQGNVFSCSVMHEALHYHYTQKSLSLSP
light: not shown
notes: copies: 2 + 2
In the case of B1, in the test with mouse FcγRIV [1], the “BINDING AMOUNT (RU)” value stood at 108 RU.

B2: IgG1-F936 (antibody, name in EU numbering)
heavy: B1 heavy with G239R, P240D, K241S, T252V, P310V
light: not shown
Consider B2, for which, in test [2], binding was characterised by a dissociation constant (Kd) of 320 nM.

B3: IL6R-BP207/IL6R-L (antibody, human IgG1)
heavy: B1 heavy with E235D, P240D, K241S, Y254M, P310V, A332R, Y436N, K441E
light: DIQMTQSPSSLSASVGDRVTITCRASQDISSYLNWYQQKPGKAPKLLIYYTSRLHSGVPSRFSGSGSGTDFTFTISSLQPEDIATYYCQQGNTLPYTFGQGTKVEIK
notes: Anti-human IL-6 receptor IgG1 Fc variant
In the case of B3, the dissociation constant (Kd) with FcγRIIIa type V [3] amounted to 65000 nM; with FcγRIIb [4], 640 nM.

B4: F1269 (antibody, name in EU numbering)
heavy: B1 heavy with L237R, P310V, H435D, Y438V, Q440K, S442D
light: not shown
notes: copies: 2 + 2
Regarding B4, in the test with human FcRn, the Kd amounted to 169 nM. This counts as sub-micromolar.

B5: IgG1-F919 (antibody, name in EU numbering)
heavy: B1 heavy with K241S, D282G, P310V, N386A, N391A
light: not shown
For B5, the Kd in test [2] is 330 nM.

B6: F1254 (antibody, name in EU numbering)
heavy: B1 heavy with L237R, T309Q, P310V, Y438V, Q440R, S442E
light: not shown
notes: copies: 2 + 2
With B6, the Kd with human FcRn came to 64.2 nM.

B7: IL6R-BP146/IL6R-L (antibody, human IgG1)
heavy: B1 heavy with L236Y, G239D, P240D, K241S, Y254M, P310V, K328A, Y436N, K441E
light: B3 light
notes: positions are EU numbering, not positions on the entry
B7: the Kd was determined as 1600 nM in the test with FcγRIIa type H and 30000 nM with FcγRIIIa type V [5]. The “KD (IIaR)/KD (IIb)” value with FcγRIIb [6] stood at 9.3. The “KD (IIaH)/KD (IIb)” value with FcγRIIb [7] is 50.

B8: IgG1-F928 (antibody, name in EU numbering)
heavy: B1 heavy with K241S, T309Q, P310V, Q313A, Y438I
light: not shown
In the case of B8, the Kd in test [2] amounted to 29 nM.

B9: IgG1-F941 (antibody, name in EU numbering)
heavy: B1 heavy with K241S, N288E, T309Q, P310V, Q313A, Y438V
light: not shown
In [2], B9 yielded a Kd of 12 nM.

B10: IL6R-BP147/IL6R-L (antibody, human IgG1)
heavy: B1 heavy with L236Y, G239D, P240D, K241S, Y254M, P310V, K328A, A332K, Y436N, K441E
light: B3 light
notes: EU numbering
On to B10, for which the Kd in the test with FcγRIIIa type V [5] is 35000 nM.

B11: IL6R-BP152/IL6R-L (antibody, human IgG1)
heavy: QVQLQESGPGLVKPSETLSLTCAVSGHSISHDHAWSWVRQPPGEGLEWIGFISYSGITNYNPSLQGRVTISRDNSKNTLYLQMNSLRAEDTAVYYCARSLARTTAMDYWGEGTLVTVSSASTKGPSVFPLAPSSKSTSGGTAALGCLVKDYFPEPVTVSWNSGALTSGVHTFPAVLQSSGLYSLSSVVTVPSSSLGTQTYICNVNHKPSNTKVDKKVEPKSCDKTHTCPPCPAPDYLGDDSVFLFPPKPKDTLMISRTPEVTCVVVDVSHEDPEVKFNWYVDGVEVHNAKTKPREEQDNSTYRVVSVLTVLHQDWLNGKEYKCKVSNAALPRPIEKTISKAKGQPREPQVYTLPPSRDELTKNQVSLTCLVKGFYPSDIAVEWESNGQPENNYKTTPPVLDSDGSFFLYSKLTVDKSRWQQGNVFSCSVMHEALHNHYTQESLSLSP
light: B3 light
notes: EU numbering
Take B11: the Kd with FcγRIIIa type V [5] is 40000 nM. The “KD (IIaR)/KD (IIb)” value with FcγRIIb [6] was determined as 19.5. For the same molecule, in the test with FcγRIIb [7], the “KD (IIaH)/KD (IIb)” value amounted to 136.

B12: F1272 (antibody, name in EU numbering)
heavy: B1 heavy with L237R, S256A, P310V, H435D, Y438V, Q440K, S442D
light: not shown
notes: copies: 2 + 2
As to B12, binding with human FcRn was characterised by a dissociation constant (Kd) of 171 nM. That is a sub-micromolar value.

B13: antibody with VH3-IgG1-F424 heavy chain and L(WT)-CK light chain (antibody)
heavy: B1 heavy with Y254M, P259A, M430L
light: not shown
notes: copies: 2 + 2
In the case of B13, the “BINDING AMOUNT (RU)” value with mouse FcγRIV [1] was found to be 138 RU.

B14: IgG1-F271 (antibody, name in EU numbering)
heavy: B1 heavy with K241S, P310V, D378A, M430F
light: not shown
notes: Fc variant of VH3-IgG1; copies: 2 + 2
In test [8], B14 displayed a Kd of 690 nM.

B15: IgG1-F276 (antibody, name in EU numbering)
heavy: B1 heavy with K241S, D272F, E384A
light: not shown
notes: as for B14
Molecule B15 had an equilibrium dissociation constant (Kd) in [8] of 41 nM.

B16: antibody with VH3-IgG1-F157 heavy chain and L(WT)-CK light chain (antibody)
heavy: B1 heavy with K241S, Y254M, P259A, M430L
light: not shown
notes: copies: 2 + 2
For B16, the “BINDING AMOUNT (RU)” value with mouse FcγRIV [1] came to 243 RU.

B17: IL6R-BP210/IL6R-L (antibody, human IgG1)
heavy: B11 heavy with D235E, Y236L, H270D, P273G, D298Y, A328K
light: B3 light
notes: as for B3
The molecule B17 gave a Kd in the test with FcγRIIb [4] of 39000 nM.

B18: F1213 (antibody, human IgG1, kappa, name in EU numbering)
heavy: B1 heavy with K241S, L253N, P310V, Y438V
light: not shown
notes: copies: 2 + 2
B18 returned a Kd with human FcRn of 633 nM. In other words, the sub-micromolar range.

B19: IgG1-F281 (antibody, name in EU numbering)
heavy: B1 heavy with K241S, E384A, M430F
light: not shown
notes: as for B14
With B19, the Kd in test [8] was 92 nM.

B20: F1270 (antibody, name in EU numbering)
heavy: B1 heavy with L237R, S256A, P310V, Y438V, Q440K, S442D
light: not shown
notes: copies: 2 + 2
In the test with human FcRn, B20 yielded a Kd of 118 nM.

B21: IgG1-F273 (antibody, name in EU numbering)
heavy: B1 heavy with K241S, P310V, E384A, M430F
light: not shown
notes: as for B14
For the molecule B21, binding in test [8] was put at a Kd of 650 nM.

B22: IL6R-BP182/IL6R-L (antibody, human IgG1)
heavy: B11 heavy with Y236L, D239G, P273G, A328K, R332K
light: B3 light
notes: EU numbering
With B22, the Kd was 2600 nM with FcγRIIa type H and 68000 nM in the test with FcγRIIIa type V [5].

B23: antibody with mPM1H-mIgG1-mF38 heavy chain (antibody)
heavy: DVQLQESGPVLVKPSQSLSLTCTVTGYSITSDHAWSWIRQFPGNKLEWMGYISYSGITTYNPSLKSRISITRDTSKNQFFLQLNSVTTGDTSTYYCARSLARTTAMDYWGQGTSVTVSSAKTTPPSVYPLAPGSAAQTNSMVTLGCLVKGYFPEPVTVTWNSGSLSSGVHTFPAVLQSDLYTLSSSVTVPSSTWPSETVTCNVAHPASSTKVDKKIVPRDCGCKPCICTVPEVSSVFIFPPKPKDVLYITLEPKVTCVVVDISKDDPEVQFSWFVDDVEVHTAQTQPREEQFNSTFRSVSELPIMHQDWLNGKEFKCRVNSAAFPAPIEKTISKTKGRPKAPQVYTIPPPKEQMAKDKVSLTCMITDFFPEDITVEWQWNGQPAENYKNTQPIMDTDGSYFVYSKLNVQKSNWEAGNTFTCSVLHEGLHWHHTEKSLSHSPGK
light: not shown
notes: also called mPM1-mIgG1-mF38; copies: 2 + 2
For the molecule B23, in the test with mouse FcγRIV [9], the “BINDING AMOUNT (RU)” value is -4.1 RU.

B24: antibody with mPM1H-mIgG1-mF39 heavy chain (antibody)
heavy: B23 heavy with P231K, S235K, H429K, W430N
light: not shown
notes: also called mPM1-mIgG1-mF39; copies: 2 + 2
Turning to B24, in the test with mouse FcγRIV [9], the “BINDING AMOUNT (RU)” value was -3.8 RU.

B25: antibody with mPM1H-mIgG1-mF40 heavy chain (antibody)
heavy: B23 heavy with P231K, S235K
light: not shown
notes: also called mPM1-mIgG1-mF40; copies: 2 + 2
As to B25, the “BINDING AMOUNT (RU)” value with mouse FcγRIV [9] is -8.9 RU.
